Measured values as given in the DeepSol protein solubility set.

Experiment: soluble on expression in E. coli; label from the status in PepcDB or PDB records

Row | Sequence | soluble on expression in E. coli
1 | MNEQPAACRIKVEALGAGFAPAAEQWAERLGLALQVDEAEFALQVGEQGLQLQQLGPDAPGPVRVDFVEGGAAHRRLYGGGSGQMIAKAVGVAQGVRPRVLDATAGLGKDGFVLATLGCEMSLIERQPLIGALLEDGLARAAQDAEVGPIVARMHLLKGNSIELMRNWQGEPPQVIYLDPMFPHREKSALVKKEMRLFRPLVGDDNDAPALLAAALALASHRVVVKRPRKAPCIEGPKPSHGLEGKSSRYDIYPKKALKALEHHHHHH | not soluble
2 | MNETSHEASECPAAVITGGARRIGHSIAVRLHQQGFRVVVHYRHSEGAAQRLVAELNAARAGSAVLCKGDLSLSSSLLDCCEDIIDCSFRAFGRCDVLVNNASAYYPTPLLPGDDTNGAADAKPIDAQVAELFGSNAVAPLFLIRAFARRQGEGGAWRSRNLSVVNLCDAMTDLPLPGFCVYTMAKHALGGLTRAAALELAPRHIRVNAVAPGLSLLPPAMPQETQEEYRRKVPLGQSEASAAQIADAIAFLVSKDAGYITGTTLKVDGGLILARA | soluble
3 | MNFEDVFREFGELWYDIEFVLTTVIKTKNVTPILTLSGEFCVPGIHALYNIFHIMISVLRIFQKVKHDTWHLVTDYVNILETRLKPFERTPCFITNTALETIIQELCEYWRMLENVPCKDIRSIEGARFTENDWKNELIRIGLSDIFPELVEFFDAGYQVLLNIAQNGDTLKTSDLICHLESTQAFCFSSRFKFLEVASDIQQGIYPKFRNSVNVFIGIASKSESLLPHLKARSRYEGILSAMQVDKQLVPPPIQICHKLIIDAETVSNPTPVPQQLEKKTENCSECSDVRMEMYTVKDVLQNVQKQLKNMQQNSEQFETKLVASDNKTKNFEKQLEDERRKNNKHLESSRKTLISKNEQLEALKRRATALSNCQAENQTLKFKIAEHHDLEKQLNISNKDVTQARDQLSGQISELEIQLKSELKNVEHLNKEHKKAIDLANEISKLKTEIERETSISKQLEKEISQLRTETDEMNIVITQSLEMENLQLRDVTKKFETENASLLKTNQQLSIQNEEQKRLIQVLLEKQQTAPSSSDFPVPSTQMTDNEENSRQQLWKYQKIKDSFRDGMKLRKAEAMVKKLTSLDRDLGVHQMAHRELENFKKLTSYYLQAIEMNIPKIKNNGSSDLEQLPEAPKFSNEFMRFYRNATGKQPLTSSSSSSANPRSTHIEGSSISTMPSTSSRGNVQHHSGSAVRGQSITPTGLSQVPMSPRKLFSQPDIVTASVPSTELDDTECAICLDEMTNFKETIKCECRRRFHLKCATKWLNEKRECPTCRKLLLNPADYPPLN | not soluble
4 | MNFEGKIALVTGASRGIGRAIAETLAARGAKVIGTATSENGAQAISDYLGANGKGLMLNVTDPASIESVLEKIRAEFGEVDILVNNAGITRDNLLMRMKDEEWNDIIETNLSSVFRLSKAVMRAMMKKRHGRIITIGSVVGTMGNGGQANYAAAKAGLIGFSKSLAREVASRGITVNVVAPGFIETDMTRALSDDQRAGILAQVPAGRLGGAQEIANAVAFLASDEAAYITGETLHVNGGMYMV | soluble
5 | MNFFTSPFSGIPLDQQVTNPNIIVGKHSYYSGYYHGHSFDDCVRYLHPERDDVDKLVIGSFCSIGSGAVFMMAGNQGHRSDWISTFPFFYQDNDNFADARDGFTRSGDTIIGHDVWIGTEAMIMPGVKIGHGAIIASRSVVTKDVAPYEVVGSNPAKHIKFRFSDVEIAMLLEMAWWNWPESWLKESMQSLCSSDIEGLYLNWQSKART | not soluble
6 | MNFISLSIFSEHLKSLFPFFTPNPFLNANVAVNDDVSSPNSSVTANYGHGTRACYTHRMGRFLSPKKAFFRFSLIN | not soluble
7 | MNFKLNNTLSNEINTLIIGIPEHLNQLERISFNHIDITESLERLKHQHIIGSKVGKIYTTAFDVQDQTYRLITVGLGNLKTRSYQDMLKIWGHLFQYIKSEHIEDTYLLMDSFISKYDQLSDVLMACGIQSERATYEFDHYKSSKKAPFKTNLNLISESLIELDFIHEGISIGQSINLARDFSNMPPNVLTPQTFAEDIVNHFKNTKVKVDVKDYDTLVSEGFGLLQAVGKGSKHKPRLVTITYNGKDKDEAPIALVGKGITYDSGGYSIKTKNGMATMKFDMCGAANVVGIIEAASRLQLPVNIVGVLACAENMINEASMKPDDVFTALSGETVEVMNTDAEGRLVLADAVFYANQYQPSVIMDFATLTGAAIVALGDDKAAAFESNSKVILNDILQISSEVDEMVFELPITATERASIKHSDIADLVNHTNGQGKALFAASFVTHFSGQTPHIHFDIAGPATTNKASYNGPKGPTGFMIPTIVQWLKQQ | not soluble
8 | MNGFDGLQEEESSDLKSIQKELAILKLKLSEQESLFNSITENTLAGYWIWDIPLNTMFISAHLKSMLGYADHELENSPETINMLMHPSDLPATYALLSKHVESDGKVPFEIEVRYKHKNGSIVWVICSGNIVTRDENGKPSKMIGCHLDNTELKKAQGVQKYTEELERKNVEMEQFAYVASHDLQEPLNTIQGFIALLSAKLEDAPDPDVTQYLHYINQSTLRMTNLIKGLLEYSRIGKNVVMSKIDCNQVITDVLMDLHIQVEETQADIEVTPLPFVMGYDIELRILFQNLISNALKFSVRRPVIKIYSVVEGGYFKFSVADNGIGIDPQFREKIFKLYQQLHPKSTYEGNGLGLAQCFKIVTELHSGSIWVESNEKEGSIFHFTIPYNA | not soluble
9 | MNHQETMTDYLMAFIEGLKNSGVEQAVISPGSRSTPLALLLHRETAIQTFVDVDERSAAFFALGLSKASQKPVVLLCTSGTAAANYYPAICEANISHVPLVVLTTDRPHELRQVGAPQAMDQLQMYQNHVKLFVEMALPEATEEMLNYAYWQGAKGAAFAQQTPAAPVHLNFPLREPLLPDLERKTKSSQQTALFAGQSILSTEQVQQLADQWYQKNGVLVVGGSHTEEEATLFIQLAEALQWPLLADPLANIVTHGQNSEVVIAHSDLFLNVATLPQEPEVVVRFGSLPISKNIMLWLKRLATTETAFYFVDENGQWQEQLKKSQTVIQAKETTFVEQLLTVVKPTEATWLAQWLLLEKTVSEVLLETLNATELNETTASLAVHQTMKENGQLFVSNSMAIRYLDRFMDSRPYRMFGNRGINGIDGIVSTALGMSAIAPTQQNVLLIGDLALYHDMNGLFLAKRYQLPLTIVLLNNNGGGIFSFLSQRTLREDDFEPLFGTPLDLDFSLVAELYGASYQEVKTIAELKQILQAAAEEPQFQVIEVKGNRQENVHLYESILAEIGRRVERQGISWNG | not soluble
10 | MNHTEIRVVTGPANYFSHAGSLERLTDFFTPEQLSHAVWVYGERAIAAARPYLPEAFERAGAKHLPFTGHCSERHVAQLAHACNDDRQVVIGVGGGALLDTAKALARRLALPFVAIPTIAATCAAWTPLSVWYNDAGQALQFEIFDDANFLVLVEPRIILQAPDDYLLAGIGDTLAKWYEAVVLAPQPETLPLTVRLGINSACAIRDLLLDSSEQALADKQQRRLTQAFCDVVDAIIAGGGMVGGLGERYTRVAAAHAVHNGLTVLPQTEKFLHGTKVAYGILVQSALLGQDDVLAQLITAYRRFHLPARLSELDVDIHNTAEIDRVIAHTLRPVESIHYLPVTLTPDTLRAAFEKVEFFRI | not soluble
11 | MNIAIIGGGIAGLATAHLLCDDHRVTLFEANDYLGGHTNTVDVSLDGTTLAVDTGFIVFNERTYPNFIRLLERLNVASRPSVMSFSVTSERNGLEYCATNLDTLFAQRRNFLNRPFWRMLREIVRFNREARELYDSHEMTLTLGDYLKNRGYSVTFVENFLVPMGAAIWSADPKRFAMFPAAAFVRFFTNHGILNVVDQPRWRVVAGGSREYVAPLARPFRDRVRLSTPVDRVRRFPDRVAVTTRGGETEYFDQVVLACHSDQALAMLTDPSDAERELLSAIPYQENDTVLHTDSRLLPGLPKARASWNCRIPRHERDGVFVTYWMNRLQSLATSTDFCVTLNGTEAIAPERIIRRITYHHPVYSPAAFEAQKRRDEISGTNRTWYCGAYWGYGFHEDGLNSALAVCRRFGRGLLEHHHHHH | not soluble
12 | MNIDSDIFKIQSNNVLPSRGKILISEPFLRDATFGRSVVLLIDHTEEGSMGLIINKQLPIFVNDIIKEFKYIENIPLYKGGPIATDTLFYLHTLADIPGAIPISKGLYLNGDFDEIKKYILQGNKVDRYIRFFLGYSGWESEQLSTELKENTWLVSKEENAYLMNGDTKDMWKQALEKLGSKYETWSRFPQVPTFN | not soluble
13 | MNIEIKDTLISEEQLQEKVKELALQIERDFEGEEIVVIAVLKGSFVFAADLIRHIKNDVTIDFISASSYGNQTETTGKVKLLKDIDVNITGKNVIVVEDIIDSGLTLHFLKDHFFMHKPKALKFCTLLDKPERRKVDLTAEYVGFQIPDEFIVGYGIDCAEKYRNLPFIASVVTEESYNLKSR | soluble
14 | MNIFEAIENRHSVRDFLERKMPERVKDDIENLLVKFITKKLDWKINLSSFPSYIYAKAEKHFDELVEYGFQGEQIVLFLTAQGFGTCWMARSPHPDVPYIIVFGYPRTRNFTRKRRPITSFLENDLEELPPEIVKIVEMTILAPSALNRQPWKIKYTGGELCISSERPVDLGIALSHAYLTAREIFKREPVIQKRGEDTYCLILNP | not soluble
15 | MNIFYEESGQFKIAAIIQKNDATYQVDTPHGKRTKVKANNVFAEFDGDMAAFLENAQAQAADIDTDLLWEVCGEEEFTAEAIAEEYYGHAPTKTELAATLIALYAAPMYFYKKAKGVFKAAPEETLKQALAAIERKKQQDAQIDAWAEALKRGEMPSEIAADLKTILHAPDKQSLTYKAFTKAADALKTSAYELAKKTGGITSIPQYLQDGFEIKYFPKGTGFPDLALPEMPDLPKADVTAFSIDDESTTEVDDALSLTDLDNGTKRVGIHIAAPSLAVKPGDKMEKNIMERLSTVYFPGGKITMLPENWIAAFSLDAGAHRPAVSIYFDVDGEFNVGAPTCKIEAVNIATNLRIQAIEPHFNAETGLDEAGEMMFAHHQDLIWFYQFATALQKARGKYEPDRAPQYDYSIELDEEGKVSVVRRERGSPIDTLVSEMMILANSTWAQMLHDNDLPGLFRVQPTGKVRMSTKSEPHIGMGVQHYGWFTSPLRRAADYINQKQLISLIDDTAEPLYQNSDAELFAALRDFDAAYTAYADFQRQMEAYWSLVYLQQQGTSELTATILKEDLVRIEGLPLVTRATGIPFDALPKSQALFKITELDAEKQFVSLNYIKAVAPAGTTAGNAV | not soluble
16 | MNIKQFNEHITSLFGEHLHKYGDDEYGFTHISKDEFHKIGYTTNLTLETIEEAYRNGVDMIVTHHAPWSFLFGMEEACIEKLKQYEMNHFWVHLPLDFVKFGTCTSLFNGIGIDTILEYSTYEEEELPGIGEYKEAIPFSNLVGKLEERMEEKVKSWRNHDKPVKRIAILTGAGNNTNLIERALEKGCDTYITGEKTLYTVQHAKFKGINLIVGSHTFTEVFGVESLAHKLKERDNSIEITRLNEEHLELEHHHHHH | not soluble
17 | MNILGIETSCDETSAAVLSDGSVRSNIVSSQRCHTDFGGVVPELASREHERLIVSIVDAAITEANIAKNDLDVIAATAGPGLIGAVMVGLCFAEGLAWALGKPFVPVNHVEAHIFSPFISDEPGHREPKGDFVSLTVSGGHTLLSVVRQDLGYEVIGRTIDDAAGEAFDKTGKMLGLGYPAGPVIDRLAREGDSDFHRFPRALTASSQTSKSYRGNFDFSFSGLKTSVRTWLEAHDSEYVQKHQADLAASIQSAIVEVLVEKSVAAALLHKVNAISVAGGVSANSGLRSAMQAACDRHGIELFIPALAYSTDNAAMIATMAQLMIARGKYRIEDNSYGVAPFARFEAARKGAR | not soluble
18 | MNIMSESIPQFYKRIQRCDPQLGTTYSKENPYFNVLSRQCNFGTVQFSYRDFYKVTLIIGVGKLYYADKWILVNRPAMLFSNPLVPYAWESISEEQKGMFCIFNEQFVQSEEKNGSLANTPLFKVTGDKVFFLNDAQVAKVMDIYTQMQEENQSDYANKHDVLRCYLHLLIHTALKMQESNKYESHPNASQRITELFIELLDRQFPVDYPHSVLSLRTPADYANRLSIHVNHLNKVVKDTTGKTTSTMIAERIIKECTQYLLHSNFSISEIAYSLGFENMAYFSKFYRKHTGKSPSEIREQQLFDLCK | not soluble
